For assay [1], the target named is biotinylated PTRAMP-CSS heterodimer: PfPTRAMP (42-309) with C-terminal Avitag, with PfCSS (20-290) (Plasmodium falciparum). In words: BLI; biotinylated PfPTRAMP or PTRAMP-CSS immobilised on High Precision Streptavidin (SAX) biosensors; twofold dilution series of anti-PfPTRAMP nanobody; 25 °C; kinetics buffer (PBS pH 7.4, 0.1% BSA, 0.02% Tween-20); 1:1 model; mean of two independent experiments.

In assay [2] the target is PfPTRAMP (42-309) with a C-terminal Avitag, biotinylated (Plasmodium falciparum). Described as above.

Consider two molecules from PMC9712106.

Usually Kd stands for a measure of binding affinity in units of concentration. The term koff denotes a measure of how fast the partners let go of each other. A high value points to a short-lived complex. The term kon denotes the rate constant with which the complex forms.

B1: anti-PfPTRAMP nanobody H10 (VHH)
VHH: QVQLQESGGGLVQPGGSLRLSCAASGFTFDNYWMYWVRQAPGKGLEWVSAINTVGSHTYYADSVKGRFTISRDNAKNTLYLQMNSLKSEDTAVYYCAKGPWGFGTSGWGEMDYWGKGTQVTVSS
In assay [1], B1 registered an equilibrium dissociation constant (Kd) of 390 nM, an off-rate constant (koff) of 0.077 s⁻¹ and a kon of 200000 M⁻¹ s⁻¹. In assay [2], this molecule showed an equilibrium dissociation constant (Kd) of 530 nM, a koff of 0.088 s⁻¹ and a kon of 170000 M⁻¹ s⁻¹.

B2: anti-PfPTRAMP nanobody H8 (VHH)
VHH: QVQLQESGGGLVQPGGSLRLSCAASGFTFSSYWMYWVRQAPGKGLEWVSAINTGGGSTAYADSVKGRFTISRDNAKNTLYLQMNSLKSDDTAVYYCVKARGSSWSDRVFDYWGQGTQVTVSS
In assay [1], B2 yielded a Kd of 410 nM, an off-rate (koff) of 0.25 s⁻¹ and a kon of 790000 M⁻¹ s⁻¹. In assay [2], this molecule came in with an equilibrium dissociation constant (Kd) of 400 nM, a koff of 0.25 s⁻¹ and a kon of 620000 M⁻¹ s⁻¹.
